The record followed here is the nanobody polyreactivity screen of Harvey et al. (2022).

The series in a line: yeast display, Sf9 membrane polyspecificity reagent, FACS + sequencing; frameworks hold sequencing errors. The method, boiled down:
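Genes from sorted yeast were amplified by colony PCR, read by MiSeq 2 × 250 sequencing and filtered on CDR length. These cells carried a synthetic nanobody library in Saccharomyces cerevisiae BJ5465 and were sorted by FACS into low and high (top ~1%) gates on anti-HA and streptavidin fluorescence. Polyreactivity is labelled according to the gate of origin.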
Consider “HVQLVDSGGGLVQAGGSLRLSCAASGSIFRYYTMGWYRQAPGKERELVAAISWSGGRTYYAHSVKGRFTISRDKAKNTVYLQMNSLKPEDTAVYYCAAVRPYYYPLPTVPNLPYDYWGQGTQVTVSS”, for which the “polyreactivity (PSR sort gate)” value is “high polyreactivity”.
In the case of “QVQLVESGGGLVQAGGSLRLSCAASGRTFYAYAMGWYRQAPGKDRELVAAITLSTGTTYYADSVKGRFTISRDNAKNTVYLQMNSLKPADTAVYYCAVEGYWYAGWYAMDYWGQGTQVTVSS”, the “polyreactivity (PSR sort gate)” value is “low polyreactivity”.
In the case of “QVQLVESGGGLVQAGGSLRLSCAASGYTFGQNAMGWYRQAPGKEREFVAAISWSGTSTYYADSVKGRFTISRDNAKNTVYLQMNSLKPEDTALYYCAARSYRYVSRREYWGQGTQVTVSS”, the “polyreactivity (PSR sort gate)” value is recorded as “high polyreactivity”.
For “QFQLVESGGGLVQAGGSLRISCAASGSIFLFYAMGWYRKAPGKERELVAAIDQSGGSTYYADSVKGRFTFSRDNAKKTVYFQMNSLKPEDTAVYYSAAVHSLYWLGDDTYGYDYWGQGTQVTVSS”, the “polyreactivity (PSR sort gate)” value is given as “low polyreactivity”.
Under “QVQLVESGGGLVQAGGSLRLSCAASGIIFYRYTKGWSRQAPGKETELVAGITRNGGSTYYADSVKGRFTISRVNAKNPVYLQMNSLKPEDTAVYYCATTLKFYWAKLDYRGQGTQVTVSS” stands “low polyreactivity”; under “QVQLVESGGCLVQAGGSLRLSCAASGLIFRGYAMGWYRQAPGKERELVATITGGGRTNYADSVKGRFTLSRDNAKNTVYLQMNSLKPEDTAVYYCNTGYYGRLRDDYWGQGTQVTVSS”, “high polyreactivity”.
Under “QVQLVESGGGLVQAGGSLRLSCAASGSIIVWNAMGWYRQAPGKERELVASITSGASTYYADSVKGRFTISRDNAKNTVYLQINSLKPEDTAVYYCAADPWYVAYLLDGYGMDYWGQGTLVTVSS” stands “low polyreactivity”.
Under “QDQLVESGGGLVQAGGSLRLSCAASGRTIKTYAMGWYRQAPGKVRELVAAIRRRGGSTYYADSVKGRFTISRDNAKNTVYLQMHSLKPEDTAVYYCAAGYVTYRDAHVSMDYCGQGTQVTVSS” stands “high polyreactivity”; under “QVQLVESGGGLVQAGGSLRLSCASSGRIFVFNAMGWYRPAPGKERELVAAINWSGGTTYYADSVKGRFTISRDNAKNTVYLQMNSVNPEDTAVYYCNAYLNRRMGYWGQGTQVTVSS”, “high polyreactivity”.
As for “QVQLVESGGGLVQAGGSLRLSCAASGFTFLIYAMGWYRQAPGKERELVAAITWRGSGTYYADSVKGRFTISRDNAKNTVYLQMNSLNPEDTAVFYCGARTARRTYDYWGQGTQVTVSS”, the “polyreactivity (PSR sort gate)” value is given as “low polyreactivity”.
“QVQLVESGGGLVQAGGSLRLSCAASGGIFRFNAMAWYRQAPGKERELVAAINRGGSTDYADSVKGRFTSSRDNAKNTVYLQMNSLKPEDTAVYYCAADYEYRPKTRDGYYWGQGTQVTVSS”: the “polyreactivity (PSR sort gate)” value is “low polyreactivity”.
Regarding “QVQLVESGGGLVQAGGSLRLSCAASGIIFHKYSMGWYRQAPGKERELVAVITWRGGTTYYADSVKGRFTISRDNAKNTVYLQMNSLKPEDTAVYYCAAKDRSPRVRYQYEYWGQGTQVTVSS”, the “polyreactivity (PSR sort gate)” value was “high polyreactivity”.
Under “QVQLVESGGGLVQAGGSLRLSCAASGSTFRYNAMGWYRQARGKERELVGGITSSGGTYAHSVKGRFTISRDNAKNTVYLQMNSLKPEDTAVYYCNALGVQDEFDYWGQGTQVTVSS” stands “low polyreactivity”; under “QVQLVESGGGLVQAGGSLRLSCAASGRILGDYAMGWYRQAPGKEREFVAASDYNGGSTNYADSVKGRFTISRDNAKNTVYLQMNSLKPEETAVYYCAAPGFPSRNGFGYWGQGTQVTVSS”, “low polyreactivity”.
For the sequence “QVQLVESGGGLVQAGGSLRLNCSAYGSTFFDYVMGWYRQAPGKERDLVAAITRGGSSNYADSVKGRFTISRDNAKNTVYLQMNRLKPEDTAVYYCNAKRDKGFYWWYNYWGQGNQVTVSS”, the “polyreactivity (PSR sort gate)” value was “high polyreactivity”.
Under “QVQLVESGGGLVQAGGRLRLSCAASGRIFWSNTMGWYRQAPGKERELVAAISGRGGSTYYPDSVKGRFTISRDNAKNTVYLQMNSLKPEDTAVYYCAAKPTRSRKIYEYWGQGTQVTVSS” stands “low polyreactivity”; under “QVQVVESVGGLVHAGCSLRLSCAASGRTFISNAMGWYRQAPGKERELVATITYSDATTYYADSVKGRFTISRDNAKNTVYLQMNSLKPEDTAVYYCIAQSRSYDRYISAGRRYDYWGQGTQVTVSS”, “low polyreactivity”.
To “QVQLVESGGGLVQAGGSLRLSCAASGSNFSSNAMGWYRQAPGKERELFAAITWSGGSTYYADSVKGRFTISRDNAKKTVYFEMNSLKPEDTAGFYCNARRNVRQTFGYEYWGQGTQVTVSS” belongs “high polyreactivity”.
As to “QVQLVESCGGLVQAGGSLRLSCADSGRTFYKYAMGWYRPAPVKERELVAAITSGGGRTYYADSVKGRFTISRDNAKNTVYLQMNSLKPEDTAVYYCNAVLPLAKYEYDSWGQGTQVTVSS”, the “polyreactivity (PSR sort gate)” value is given as “high polyreactivity”.
To “QVQLVESGGGLVQAGGSLRLSCAASGQIFYTNTMGWYRQAPGKERELVAAINSGDRTYYADSVKGRFTISRDNAKNTVYLQMNSLKPEDTAVYYCAARNYATAVRYDYWGQGTQVTVSS” belongs “high polyreactivity”.
On to “QVQLVESGGGLVQAGGSLRLSCAASGITFYIYAMGWYRQAPGKERELVATISWSDGRTYYADSVKGRFTISRDNAKTTVYLQMNSLKPEDTAVYYCAADWWYYQFDYEYWGQGTQVTVSS”, for which the “polyreactivity (PSR sort gate)” value is “low polyreactivity”.
Regarding “QVQLVESGGGLVQAGGSLRLSCAASGSIFYRYAMGGYRQAPGKERELVAAISSRGGSTYYADSVKGRFTISRDTAKNTVYLQMNSLKPEDTAVYYCNKDNHDLELPVEFEYWGQGTQVTVSS”, the “polyreactivity (PSR sort gate)” value is listed as “high polyreactivity”.
Under “QVQLVESGGGLVQAGGSLRLSCAASGIIFTVYAMGWYRQAPGKERELVASITSNGGSTYYADSVKGRFTISRDNAKNTVYLQMNSLKPEDTAVYYCAADSYYDPVDYNYWGQGTQVTVSS” stands “low polyreactivity”; under “QVQLVESGGGLVQAGGSLRLICAASGSIFLGYAMGWYRPAPGKERELVAAISTSGGGTYYADSVKGRFTISRDNAKNTVYLQMNSLKPEDTAVYYCNAVSHYKYDWGQGTQVTVSS”, “low polyreactivity”.
To “QVQLVESGGGLVQAGGSLRLSCAASGYIFASYAMGWYRPAPGKERELVAAISIGGNTNYADSVKGRFTISRDNAKNTVYLQMNSLKPEDTAVYYCAAKTPRYRYGYWRQGTQVTVSS” belongs “low polyreactivity”; to “QVQLVESGGGLVQAGGSLRLSCAASGSIFAGYAMGWYRKAPGKERELVAVISSTGSTYYADSVKGRFTISRDNAKNTVYLQMNSLKTEDTAVYYCNAYRYWSPGYDYWGQGTQVTVSS”, “low polyreactivity”; to “QVQLVESGGGLVQAGGSLRLRCAASGSIFYRNAMGWYRQAPGTERELVAAISSDGSTNYADSVKGRFSISRDNAKNTVYLQMNSLKPEDTAVYYCNADYVQQVAKYQYGYEYGYWGQGTQVTVSS”, “low polyreactivity”.
Consider “QGQLVESGGGLVQAGGSLRLSCAASGSIFWDNVMGWSRQAPGKERELVADIDSWDGGSTYYADSVKGRFTISRDNAKNTVYLQMHSRKPEDTAVYYCNTDVLWWRGGDDFWGQGTQVTVSS”, for which the “polyreactivity (PSR sort gate)” value is on record as “low polyreactivity”.
Regarding “QVQLVESGGGLVQAGGSLRLSCAASGNTFEDYAMGWYRQAPGKERELVAAINSGGSTNYADSVKGRFTISRDNAKNTVYLQMNSLKPEDTAVYYCAAEPGEGFDYWGQGTQVTVSS”, the “polyreactivity (PSR sort gate)” value is “low polyreactivity”.
To “QVQLVESGGGLVQAGGSLRLSCAASGFIFRPYAMGWYRQAPGKERELVATISYRGGSTDYADSVKGRFTISRDNAKNTVYLQMNSLKPEDTAVYYCNAGYNRGYYYPVFAFFPYEYWGQGTQVTVSS” belongs “low polyreactivity”; to “QVQLVESGGGLVQSGGSLRLSCAASGRTFFENAMGWYRPAPGKEREFVAAISYNGGSTYYADSVKGRFTISRDNAKNTVYLQMNSLKPEDTAVYYCAADPNYGYDYWGQGTQVTVSS”, “low polyreactivity”; to “QVQLVESGGGLVQAGGSLRLSCAASGLTFKVNAMGWYRQAPGRGRELVAAISVSGGSTYYADSVKGRFTISRDNAKNTVYLQMNSLKPEDTAVYYCNADFYYRYYGAYDYWGQGTQVTVSS”, “high polyreactivity”.
As to “QVQLVESGGGLVQAGGSLRLSCAASGRIFRSNAMGWYRQAPGKERELVATISRRGGSTYYADSVKGRFTISRDNAKNTVYLQMNSLKPEDTAVYYCNTRNSGSLDLYNTMDYWGQGTQVTVSS”, the “polyreactivity (PSR sort gate)” value was “high polyreactivity”.
Under “QVQLVESGGGLVQAGGSLRLSCAASGGTFRPNAMGWYRQAPGKERELVAAITRSGGSTYYADSVKGRFTISRDNAKNTVYLQMNSLKPEDTAVYYCARDLREWGQGTQVTVSS” stands “low polyreactivity”; under “QVQLVESGGGLVQAGGRLRLSCAASGNTFGINAMGWYRQAPGKEREFVAAITFGGGRTYYADSVKGRFTISRDNAKNTVYFQMNSLKPEDTAVYFCAARAPVVTYTWSSPRWWFDYWGQGTQVTVSS”, “high polyreactivity”; under “QVQLVESGGGLVQAGGSLRLSCAASGRTFSRNAMAWYRQAPGKERELVAAISRRGVSTYYADSVKGRFTISRDNAKNTVYLQMNSLKPDDTAVFYCNTRGTYRYDYWGQGTQVTVSS”, “low polyreactivity”.
Regarding “QVQLVESGGGLVQAGGSLRLSCAASGSIFLHNAMGWYRQAPGKERELVAVITSRGGSTYYADSVKGRFTISRDNAKNTVYLQMNSLKPEDTAVYYCAADSRQSDYYYQPTKIDYWGQGTQVTVSS”, the “polyreactivity (PSR sort gate)” value is reported as “low polyreactivity”.
For the sequence “QVQLVESGGGLVQAGGSLRLSCAASGSTFTNNGMGWYRQAPGKERELVATISWDGDSTYYADSVKGRFTISRDNAKNTVYLQMNSLKPEDTAVYYCAADEWGSDSALNFEYWGQGTQVTVSS”, the “polyreactivity (PSR sort gate)” value was “low polyreactivity”.
Turning to “QVQLQESGGGLVQAGGSLRLSCAASGIIVDADIMGWYRQAPGQERDLVASITDGGRTNYADSVKGRFTISRDNAKNTVYLQMNSLKPEDTAVYYCAAIAYPDIPTYFDYDSEYFYCGQGTQVTVSS”, the “polyreactivity (PSR sort gate)” value was “low polyreactivity”.
Turning to “QVQLVESGGGLVQAGGSLRLSCAASGRNFGLYAMGWYRQAPGTERELVAAISWGGGRTYYADSVKGRFTISRDNAKNTVYLQMNSLKPEDTAVYYCNAVYSPRYYVGGYDYWGQGTQVTVSS”, the “polyreactivity (PSR sort gate)” value is listed as “high polyreactivity”.
Take “QVQLVESGGGLVQAGGSLRLSCAASGSTFGSNAMGWYRQAPGKERELVAAITNGGSTNYADSVKGRFTISRDNAKNTVYLQMHSLKPEDTAVYYCNADPQQSKLWTYFFGFPGYYWGQGTQVTVSS”: the “polyreactivity (PSR sort gate)” value was “low polyreactivity”.
